Results from article PMC10786891, “Massively parallel profiling of RNA-targeting CRISPR-Cas13d”.

T1: EsCas13d, nuclease-dead (Eubacterium siraeum, UniProt B0MS50, R295A;H300A;R849A;H854A)
T1 sequence: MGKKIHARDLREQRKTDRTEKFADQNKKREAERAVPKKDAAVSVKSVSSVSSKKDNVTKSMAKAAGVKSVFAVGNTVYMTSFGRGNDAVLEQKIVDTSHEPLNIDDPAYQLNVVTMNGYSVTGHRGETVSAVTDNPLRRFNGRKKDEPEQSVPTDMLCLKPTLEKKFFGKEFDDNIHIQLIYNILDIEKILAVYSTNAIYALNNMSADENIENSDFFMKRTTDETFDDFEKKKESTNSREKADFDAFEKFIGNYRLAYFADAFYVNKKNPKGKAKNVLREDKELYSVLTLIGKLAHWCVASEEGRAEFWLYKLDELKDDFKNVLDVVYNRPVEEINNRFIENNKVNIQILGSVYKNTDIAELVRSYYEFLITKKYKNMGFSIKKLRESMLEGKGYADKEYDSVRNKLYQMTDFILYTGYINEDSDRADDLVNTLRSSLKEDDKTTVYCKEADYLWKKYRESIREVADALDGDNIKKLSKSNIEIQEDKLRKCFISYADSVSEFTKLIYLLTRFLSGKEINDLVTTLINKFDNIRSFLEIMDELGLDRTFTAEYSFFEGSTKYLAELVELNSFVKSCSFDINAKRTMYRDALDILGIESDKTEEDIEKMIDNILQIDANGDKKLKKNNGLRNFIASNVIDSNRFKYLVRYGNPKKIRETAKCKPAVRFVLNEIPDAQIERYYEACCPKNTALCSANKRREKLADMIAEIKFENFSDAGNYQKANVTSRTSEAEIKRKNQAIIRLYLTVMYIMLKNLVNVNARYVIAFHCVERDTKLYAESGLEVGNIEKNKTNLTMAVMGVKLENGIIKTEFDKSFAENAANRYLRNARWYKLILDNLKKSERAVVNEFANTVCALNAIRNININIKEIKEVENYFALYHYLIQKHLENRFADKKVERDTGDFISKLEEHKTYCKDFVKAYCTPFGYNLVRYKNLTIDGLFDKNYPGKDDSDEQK


The binders below were run against T1, EsCas13d, nuclease-dead (assay: crRNA (strand 1, pre-loaded); Mg2+; 40 mM Tris-HCl pH 7.5, 150 mM NaCl, 6 mM MgCl2, 1 mM DTT, 0.1% Tween-20, 0.2 mg/ml BSA; 25 C; 10 min per concentration, then washed). Conditions: tags: His6-TwinStrep-SUMO cleaved; N-terminal SNAP kept (SNAP-Surface 488); label: 3' end held by stalled T7 RNA polymerase.

Binder | Kd
target 2 MT 5'PFS AAU 3'PFS ACC (mixed) RNA 1: CACCCGUGCAAAAUUGCAGGGGUCUAAAACCUUCUCCAAAUUGUUUCAUCCU RNA 2: GGGAAUGGAUCCACAUCUACGAAUUCAAUAGGAUGAAACAAUUUGGAGAAGACCAGAUCGGAAGAGCACACGU | 10.5 ± 1.6 nM
target 2 MT 5'PFS CAU 3'PFS CAA (mixed) RNA 1: CACCCGUGCAAAAUUGCAGGGGUCUAAAACCUUCUCCAAAUUGUUUCAUCCU RNA 2: GGGAAUGGAUCCACAUCUACGAAUUCCAUAGGAUGAAACAAUUUGGAGAAGCAAAGAUCGGAAGAGCACACGU | 5.2 ± 0.9 nM
target 2 MT 5'PFS GGC 3'PFS CGG (mixed) RNA 1: CACCCGUGCAAAAUUGCAGGGGUCUAAAACCUUCUCCAAAUUGUUUCAUCCU RNA 2: GGGAAUGGAUCCACAUCUACGAAUUCGGCAGGAUGAAACAAUUUGGAGAAGCGGAGAUCGGAAGAGCACACGU | 14.1 ± 1.7 nM
target 2 MT 5'PFS ACC 3'PFS ACC (mixed) RNA 1: CACCCGUGCAAAAUUGCAGGGGUCUAAAACCUUCUCCAAAUUGUUUCAUCCU RNA 2: GGGAAUGGAUCCACAUCUACGAAUUCACCAGGAUGAAACAAUUUGGAGAAGACCAGAUCGGAAGAGCACACGU | 10.2 ± 3.1 nM
target 2 MT 5'PFS UAU 3'PFS UUU (mixed) RNA 1: CACCCGUGCAAAAUUGCAGGGGUCUAAAACCUUCUCCAAAUUGUUUCAUCCU RNA 2: GGGAAUGGAUCCACAUCUACGAAUUCUAUAGGAUGAAACAAUUUGGAGAAGUUUAGAUCGGAAGAGCACACGU | 48 ± 11 nM
target 2 MT 5'PFS CAU 3'PFS CAC (mixed) RNA 1: CACCCGUGCAAAAUUGCAGGGGUCUAAAACCUUCUCCAAAUUGUUUCAUCCU RNA 2: GGGAAUGGAUCCACAUCUACGAAUUCCAUAGGAUGAAACAAUUUGGAGAAGCACAGAUCGGAAGAGCACACGU | 4.6 ± 0.8 nM
target 2 MT 5'PFS UUU 3'PFS ACC (mixed) RNA 1: CACCCGUGCAAAAUUGCAGGGGUCUAAAACCUUCUCCAAAUUGUUUCAUCCU RNA 2: GGGAAUGGAUCCACAUCUACGAAUUCUUUAGGAUGAAACAAUUUGGAGAAGACCAGAUCGGAAGAGCACACGU | 14.1 ± 3.4 nM
target 2 MT 5'PFS AAA 3'PFS UCU (mixed) RNA 1: CACCCGUGCAAAAUUGCAGGGGUCUAAAACCUUCUCCAAAUUGUUUCAUCCU RNA 2: GGGAAUGGAUCCACAUCUACGAAUUCAAAAGGAUGAAACAAUUUGGAGAAGUCUAGAUCGGAAGAGCACACGU | 15 ± 5 nM
target 2 MT 5'PFS UCU 3'PFS UUC (mixed) RNA 1: CACCCGUGCAAAAUUGCAGGGGUCUAAAACCUUCUCCAAAUUGUUUCAUCCU RNA 2: GGGAAUGGAUCCACAUCUACGAAUUCUCUAGGAUGAAACAAUUUGGAGAAGUUCAGAUCGGAAGAGCACACGU | 18 ± 4 nM
target 2 MT 5'PFS ACC 3'PFS ACU (mixed) RNA 1: CACCCGUGCAAAAUUGCAGGGGUCUAAAACCUUCUCCAAAUUGUUUCAUCCU RNA 2: GGGAAUGGAUCCACAUCUACGAAUUCACCAGGAUGAAACAAUUUGGAGAAGACUAGAUCGGAAGAGCACACGU | 7.1 ± 3.2 nM
target 2 MT 5'PFS GGC 3'PFS CGC (mixed) RNA 1: CACCCGUGCAAAAUUGCAGGGGUCUAAAACCUUCUCCAAAUUGUUUCAUCCU RNA 2: GGGAAUGGAUCCACAUCUACGAAUUCGGCAGGAUGAAACAAUUUGGAGAAGCGCAGAUCGGAAGAGCACACGU | 12.5 ± 1.1 nM
target 2 MT 5'PFS UCU 3'PFS UUU (mixed) RNA 1: CACCCGUGCAAAAUUGCAGGGGUCUAAAACCUUCUCCAAAUUGUUUCAUCCU RNA 2: GGGAAUGGAUCCACAUCUACGAAUUCUCUAGGAUGAAACAAUUUGGAGAAGUUUAGAUCGGAAGAGCACACGU | 10.3 ± 1 nM
target 2 MT 5'PFS ACC 3'PFS ACG (mixed) RNA 1: CACCCGUGCAAAAUUGCAGGGGUCUAAAACCUUCUCCAAAUUGUUUCAUCCU RNA 2: GGGAAUGGAUCCACAUCUACGAAUUCACCAGGAUGAAACAAUUUGGAGAAGACGAGAUCGGAAGAGCACACGU | 4.3 ± 0.9 nM
target 2 MT 5'PFS GGC 3'PFS CGU (mixed) RNA 1: CACCCGUGCAAAAUUGCAGGGGUCUAAAACCUUCUCCAAAUUGUUUCAUCCU RNA 2: GGGAAUGGAUCCACAUCUACGAAUUCGGCAGGAUGAAACAAUUUGGAGAAGCGUAGAUCGGAAGAGCACACGU | 18 ± 2.4 nM
target 2 MT 5'PFS AGG 3'PFS AGA (mixed) RNA 1: CACCCGUGCAAAAUUGCAGGGGUCUAAAACCUUCUCCAAAUUGUUUCAUCCU RNA 2: GGGAAUGGAUCCACAUCUACGAAUUCAGGAGGAUGAAACAAUUUGGAGAAGAGAAGAUCGGAAGAGCACACGU | 3.4 ± 0.4 nM
target 2 MT 5'PFS GGC 3'PFS CGA (mixed) RNA 1: CACCCGUGCAAAAUUGCAGGGGUCUAAAACCUUCUCCAAAUUGUUUCAUCCU RNA 2: GGGAAUGGAUCCACAUCUACGAAUUCGGCAGGAUGAAACAAUUUGGAGAAGCGAAGAUCGGAAGAGCACACGU | 11.4 ± 1.2 nM
target 2 MT 5'PFS AGG 3'PFS AGC (mixed) RNA 1: CACCCGUGCAAAAUUGCAGGGGUCUAAAACCUUCUCCAAAUUGUUUCAUCCU RNA 2: GGGAAUGGAUCCACAUCUACGAAUUCAGGAGGAUGAAACAAUUUGGAGAAGAGCAGAUCGGAAGAGCACACGU | 4.8 ± 0.5 nM
target 2 MT 5'PFS AAU 3'PFS ACG (mixed) RNA 1: CACCCGUGCAAAAUUGCAGGGGUCUAAAACCUUCUCCAAAUUGUUUCAUCCU RNA 2: GGGAAUGGAUCCACAUCUACGAAUUCAAUAGGAUGAAACAAUUUGGAGAAGACGAGAUCGGAAGAGCACACGU | 5.5 ± 0.6 nM
target 2 MT 5'PFS UCU 3'PFS UUA (mixed) RNA 1: CACCCGUGCAAAAUUGCAGGGGUCUAAAACCUUCUCCAAAUUGUUUCAUCCU RNA 2: GGGAAUGGAUCCACAUCUACGAAUUCUCUAGGAUGAAACAAUUUGGAGAAGUUAAGAUCGGAAGAGCACACGU | 15.6 ± 3 nM
target 2 MT 5'PFS UUU 3'PFS ACA (mixed) RNA 1: CACCCGUGCAAAAUUGCAGGGGUCUAAAACCUUCUCCAAAUUGUUUCAUCCU RNA 2: GGGAAUGGAUCCACAUCUACGAAUUCUUUAGGAUGAAACAAUUUGGAGAAGACAAGAUCGGAAGAGCACACGU | 6.1 ± 0.7 nM
target 2 MT 5'PFS UUU 3'PFS ACG (mixed) RNA 1: CACCCGUGCAAAAUUGCAGGGGUCUAAAACCUUCUCCAAAUUGUUUCAUCCU RNA 2: GGGAAUGGAUCCACAUCUACGAAUUCUUUAGGAUGAAACAAUUUGGAGAAGACGAGAUCGGAAGAGCACACGU | 10.6 ± 2 nM
target 2 MT 5'PFS ACA 3'PFS AAC (mixed) RNA 1: CACCCGUGCAAAAUUGCAGGGGUCUAAAACCUUCUCCAAAUUGUUUCAUCCU RNA 2: GGGAAUGGAUCCACAUCUACGAAUUCACAAGGAUGAAACAAUUUGGAGAAGAACAGAUCGGAAGAGCACACGU | 4 ± 1.3 nM
target 2 MT 5'PFS AGU 3'PFS UAC (mixed) RNA 1: CACCCGUGCAAAAUUGCAGGGGUCUAAAACCUUCUCCAAAUUGUUUCAUCCU RNA 2: GGGAAUGGAUCCACAUCUACGAAUUCAGUAGGAUGAAACAAUUUGGAGAAGUACAGAUCGGAAGAGCACACGU | 15.1 ± 3.3 nM
target 2 MT 5'PFS AUA 3'PFS UGU (mixed) RNA 1: CACCCGUGCAAAAUUGCAGGGGUCUAAAACCUUCUCCAAAUUGUUUCAUCCU RNA 2: GGGAAUGGAUCCACAUCUACGAAUUCAUAAGGAUGAAACAAUUUGGAGAAGUGUAGAUCGGAAGAGCACACGU | 13.3 ± 2 nM
target 1 insG 3' of 20,insU 3' of 12 (mixed) RNA 1: CACCCGUGCAAAAAUGCAGGGGUCUAAAACUGAGCGGAUAACCUCUCUAUGG RNA 2: GGGAAUGGAUCCACAUCUACGAAUUCGUACCAGUAGAGAGGUUUAUCCGCUCACCGAGAUCGGAAGAGCACACGU | 25 ± 4 nM
target 1 insC 3' of 15,insA 3' of 15 (mixed) RNA 1: CACCCGUGCAAAAAUGCAGGGGUCUAAAACUGAGCGGAUAACCUCUCUAUGG RNA 2: GGGAAUGGAUCCACAUCUACGAAUUCGUACCAUAGAGCAAGGUUAUCCGCUCACCGAGAUCGGAAGAGCACACGU | 8.8 ± 0.6 nM
target 1 insG 3' of 7,insA 3' of 3 (mixed) RNA 1: CACCCGUGCAAAAAUGCAGGGGUCUAAAACUGAGCGGAUAACCUCUCUAUGG RNA 2: GGGAAUGGAUCCACAUCUACGAAUUCGUACCAUAGAGAGGUUAUCGCGCUACACCGAGAUCGGAAGAGCACACGU | 5.85 ± 0.29 nM
target 1 A1U,G13A (mixed) RNA 1: CACCCGUGCAAAAAUGCAGGGGUCUAAAACUGAGCGGAUAACCUCUCUAUGG RNA 2: GGGAAUGGAUCCACAUCUACGAAUUCGUACCAUAGAGAAGUUAUCCGCUCUCCGAGAUCGGAAGAGCACACGU | 6.4 ± 0.5 nM
